In patent US20200376136A1:

Molecular target: human six-transmembrane epithelial antigen of prostate 2 (STEAP2) (human) (UniProt Q8NFT2)
Test: FACS on HEK293 cells (low STEAP2), MFI fold above unstained, average at 100-300 nM antibody

Sequence of human six-transmembrane epithelial antigen of prostate 2 (STEAP2) (human) (Q8NFT2 whole entry): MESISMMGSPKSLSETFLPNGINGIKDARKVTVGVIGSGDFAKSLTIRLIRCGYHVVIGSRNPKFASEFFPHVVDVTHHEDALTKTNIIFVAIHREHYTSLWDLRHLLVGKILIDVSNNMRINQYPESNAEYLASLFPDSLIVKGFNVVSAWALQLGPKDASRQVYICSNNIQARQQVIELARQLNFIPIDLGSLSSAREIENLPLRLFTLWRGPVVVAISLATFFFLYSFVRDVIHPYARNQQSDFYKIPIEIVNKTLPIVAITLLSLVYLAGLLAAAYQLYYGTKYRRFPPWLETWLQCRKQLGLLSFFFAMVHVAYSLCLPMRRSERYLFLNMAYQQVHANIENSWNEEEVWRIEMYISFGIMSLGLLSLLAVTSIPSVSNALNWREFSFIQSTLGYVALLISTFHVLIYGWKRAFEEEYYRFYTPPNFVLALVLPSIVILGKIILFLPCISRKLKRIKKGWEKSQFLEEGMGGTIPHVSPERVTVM

Avg F.A.B (fold above background) (fold above background) | Substance
1 | hIgG1 Isotype Control-I (antibody)
1.7 | hIgG1 Isotype Control-II (antibody)
